The labels stand for the following.
B1: recEna1BΔNtc (deletion of residues 2-15 of WT Ena1B) (other)
chain: MKTIVQDKVCIDWTAAATAAIIYADNISQDIYASGYLKVDTGTGPVTIVFYSGGVTGTAVETIVVATGSSASFTVRRFDTVTILGTAAAETGEFCMTIRYTLS
B2: recEna1B after removal of the N-terminal 6xHis tag by TEV protease (other)
chain: GNCSTNLSCCANGQKTIVQDKVCIDWTAAATAAIIYADNISQDIYASGYLKVDTGTGPVTIVFYSGGVTGTAVETIVVATGSSASFTVRRFDTVTILGTAAAETGEFCMTIRYTLS
notes: also called in vitro Ena1B fibers; recENA1B (PDB7A02)
B3: M-TEV-Ena1B (M-[…]-Ena1B), steric block of 6 amino acids (other)
chain: MENLYFQGNCSTNLSCCANGQKTIVQDKVCIDWTAAATAAIIYADNISQDIYASGYLKVDTGTGPVTIVFYSGGVTGTAVETIVVATGSSASFTVRRFDTVTILGTAAAETGEFCMTIRYTLS
notes: also called M-TEV-Ena1B (N=6)
B4: recombinant Ena1B with N-terminal 6xHis tag and TEV cleavage site (other)
chain: MHHHHHHSSGENLYFQGNCSTNLSCCANGQKTIVQDKVCIDWTAAATAAIIYADNISQDIYASGYLKVDTGTGPVTIVFYSGGVTGTAVETIVVATGSSASFTVRRFDTVTILGTAAAETGEFCMTIRYTLS
B5: Bacillus cereus NVH 0075-95 Endospore appendage (Ena) 1A, wild type (other)
chain: MACECSSTVLTCCSDNSSNFVQDKVCNPWSSAEASTFTVYANNVNQNIVGTGYLTYDVGPGVSPANQITVTVLDSGGGTIQTFLVNEGTSISFTFRRFNIIQITTPATPIGTYQGEFCITTRYLMA
notes: also called KMP91697.1; WP_000742049.1
B6: split-BC Ena1B, N-terminal part (strands AB) (other)
chain: MGNCSTNLSCCANGQKTIVQDKVCIDWTAA
notes: also called split BC construct, N-terminal half
B7: Ena2A after removal of the 6×His-TEV blocker by TEV protease (other)
chain: MSCECSGSALTCCPDKNYVQDKVCSPWSATVVATAIDNVLYTNNINQNVVGTGFVKYDVGPGPITVEALDSAGGTIDTQTLNPGTSIAFTYRRFDSIQVVLPATPAGTYQGEFCITTRYPLS
notes: also called in vitro assembled Ena2A filament
B8: Ena2A without steric block (other)
chain: B7 chain
notes: also called WP_001277540.1
B9: recombinant Ena1C with N-terminal 6xHis tag and TEV cleavage site (other)
chain: MHHHHHHSSGENLYFQGKPHKNIGCFAPLSIICQPTCPCPPPILPPERGDAELVTNEFAGDILISNDFIPISQKQLKQTNTTVNIWKNDGIVSLSGTISIYNNRNSTNALSIQIISSTTNTFTALPGNTISYTGFDLQSVSVIDIPSDPSIYIEGRYCFQLTYCKSKRDCL
notes: also called recEna1C; WP_000802321
B10: Ena1B-DE-Flag insertion variant (other)
chain: MGNCSTNLSCCANGQKTIVQDKVCIDWTAAATAAIIYADNISQDIYASGYLKVDTGSDYKDDDDKGSGPVTIVFYSGGVTGTAVETIVVATGSSASFTVRRFDTVTILGTAAAETGEFCMTIRYTLS
B11: M-His6-SSG-Ena1B, steric block of 9 amino acids (other)
chain: MHHHHHHSSGGNCSTNLSCCANGQKTIVQDKVCIDWTAAATAAIIYADNISQDIYASGYLKVDTGTGPVTIVFYSGGVTGTAVETIVVATGSSASFTVRRFDTVTILGTAAAETGEFCMTIRYTLS
B12: Bacillus cereus NVH 0075-95 Endospore appendage (Ena) 1B, wild type (other)
chain: MGNCSTNLSCCANGQKTIVQDKVCIDWTAAATAAIIYADNISQDIYASGYLKVDTGTGPVTIVFYSGGVTGTAVETIVVATGSSASFTVRRFDTVTILGTAAAETGEFCMTIRYTLS
notes: also called WT Ena1B; WT recEna1B
B13: Ena2C after removal of the 6×His-TEV blocker by TEV protease (other)
chain: MKNKKNIGCFAPLSIICPDPCPPPPPPNPNCERVTNEFAGNFLITNNTIPSAKDASQSMILWQSDGILLISGTVSVYNSTSSTETITIQIVGTVTNIFTVFPGNTISYTGKDLHSVSIINITSNPSLYLEGKYCCEFTCCL
notes: also called short L-like Ena2C filaments
B14: Ena1B-HI-HA insertion variant (other)
chain: MGNCSTNLSCCANGQKTIVQDKVCIDWTAAATAAIIYADNISQDIYASGYLKVDTGTGPVTIVFYSGGVTGTAVETIVVATGSSASFTVRRFDTVTILGGSYPYDVPDYAGSAAETGEFCMTIRYTLS

Data set [1] concerns the molecule itself. Put plainly: expression in E. coli, ns-TEM.
Data set [2] concerns the molecule itself. Put plainly: self-assembly after TEV cleavage of the His-tag, TEM.
Data set [3] deals with B4. Put plainly: epitaxial growth on maleimide magnetic beads carrying 6×His_TEV_Ena1B multimers, nsTEM.
Data set [4] deals with the molecule itself. Put plainly: self-assembly after refolding from 8M urea, negative stain TEM.
Data set [5] concerns the molecule itself. In words: self-assembly of tag-free protein in the E. coli cytoplasm, negative stain TEM.
Data set [6] addresses B12. In words: immunogold TEM and cryoEM of ex vivo S-type Enas; both subunits within single fibers.
Data set [7] addresses T1, split-BC Ena1B, C-terminal part (strands CDEFGHI) (Bacillus cereus NVH 0075-95).
T1 construct: also called split BC construct, C-terminal half
T1 chain: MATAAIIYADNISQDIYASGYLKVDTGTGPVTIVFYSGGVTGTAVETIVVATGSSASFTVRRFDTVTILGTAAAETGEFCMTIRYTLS
In words: co-expression of the two halves in E. coli, NS-TEM.

Data set [8] concerns the molecule itself. In words: in vitro self-assembly after TEV cleavage, NS-TEM and cryo-EM.
Data set [9] deals with the molecule itself. In words: self-assembly in the E. coli cytoplasm, NS-TEM.
Data set [10] concerns the molecule itself. In words: self-assembly after refolding by dialysis, EM.
Data set [11] deals with the molecule itself. Put plainly: expression in E. coli, nsTEM.
Data set [12] deals with the molecule itself. Put plainly: in vitro self-assembly after TEV cleavage, cryo-EM.

In the case of B1, the binding result in data set [1] is “binds”. Regarding B2, the binding result in data set [2] and in data set [3] was “binds” in each case. For B3, the binding result in data set [1] is on record as “binds”. As to B4, the binding result in data set [4] is reported as “binds”. Consider B5, for which the binding result in data set [5] and in data set [6] was “binds” each time. In the case of B6, the binding result in data set [7] is recorded as “binds”. On to B7, for which the binding result in data set [8] was “binds”. As for B8, the binding result in data set [9] was “binds”.

With B9, the binding result in data set [10] is on record as “binds”. For B10, the binding result in data set [11] is on record as “binds”. For the molecule B11, the binding result in data set [1] is given as “binds”. With B12, the binding result in [5] was “binds”. Regarding B13, the binding result in data set [12] is given as “binds”. Take B14: in data set [11], the binding result was “binds”.

Source of the values: patent US20230279059A1 (VIB VZW, published 2023).
